# Measurements taken from the supplement of paper PMC12764529.
# ± gives the half width of the 95% confidence interval.
# Assay: folding stability dG unfold (combined trypsin and chymotrypsin); higher = more stable
# Summary of the method: (§1)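 Unfolding free energy was derived, per protease or combined, against a sequence-predicted unfolded-state K50 and a shared folded-state K50, starting from K50 inferred by Bayesian fitting of sequencing counts. Digestion with trypsin and chymotrypsin was carried out on designed mini-proteins under 80 residues without cysteine in a PA-tagged cDNA display construct. Only designs with AlphaFold2 dimer inter-PAE above 15 were kept.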
row,Sequence,folding stability dG unfold [kcal/mol]
1,SAGGSAGGSASLEEIKERAREEILKKHPDLPPDEPLTVTVKDPNSSNEYTITFNADGTVVESAGGSAGGSAG [r3_441_JUSTAS],0.837 ± 0.098
2,SAGMEELAKELAEKLAEELPPGWKIVEIKVERLEDGTLRVRITIYRLDENGKLVEKREIEIEIPLEELSAGG [r19_28_TrROS_Hall],4.5 ± 0.15
3,SAGGMTLEFELEAEPLEEVEKRVRELLRELGFPESVEITIEPKKPDDGSVIYPVKVTLNDPALEARLSAGGS [r8_85_JUSTAS],1.11 ± 0.097
4,SAGGSAGGSAGTIRIKTKDGKTIEIELEGLSDEELENPEVLAEIKKALEDAGFEIVEVEPSAGGSAGGSAGG [r11_467_TrROS_Hall],2.09 ± 0.078
5,SAGGSAGGSAGIIVRLPDGGWLIIDITMTRKYPPPDGKPKKVEFEFTIIISPKSGKIRIVSAGGSAGGSAGG [r11_271_TrROS],3.01 ± 0.26
6,SAGGSAGGSKQILKKLGLPPGKEVQIMMTPNDMNELRDLPGIKSIKMEPRPDGYYQHSIRIDNSAGGSAGGS [r12_750_TrROS],-0.583 ± 0.49
7,SAGGMKIKITEVTVTRYYYDPKTGKLKKVEKVKVLVIEVELEPGQTAEEIAAALKKLFPDLKIVVVDSAGGS [r8_30_TrROS_Hall],5.17 ± 0.18
8,SAGGMTLVIKVTNKDGSTLTITFDAETNTITITFPDGTTRTITVPADTTIEELIAALPPDAKVEILPASAGG [r13_696_TrROS_Hall],4.55 ± 0.1
9,SAGGSAMPKKVVEGPVPPEDVEARIAELLEEDPNLTYVKFTYPELGSEVVIDFENGKVTKIERLLESAGGSA [r15_166_JUSTAS],0.108 ± 0.052
10,SAGKAELVEVTIEGDKLTALFKIPETGGLVLAEAEFDNGIVKVKAKFYSPSGKPLGEAEFTLPASELKLSAG [r5_308_TrMRF],2.48 ± 0.12
11,SAGGSAGGSMGLVVRREDGTLVLFRLGEDGLEEFTVPLEDWLTVPEEFFDAIPPEEVDEATPESAGGSAGGS [r12_793_TrMRF],1.69 ± 0.12
12,SAGGSAGGSAGGPEAVIEELKKAGYTPKVDPNSSVVTVTYKNPDGTILTKTINVPPSLLSAGGSAGGSAGGS [r10_1173_JUSTAS],1.16 ± 0.26
13,SGSVELSFDPSKPYKVKITATAPKDGTPYEVSGTTDPATGTITLPIRRPGSGEPLPPEELEFEIEVSPPESA [r9_928_JUSTAS],0.167 ± 0.066
14,SAGMPKPLVLPVVLPDDGATVEVVFDPVEKRIEIRVFKPGHRERAREFAEGIAALFEELGYEVEITDDSAGG [r19_354_TrMRF],1.91 ± 0.12
15,SMKPEEVKVIAEIEIEVNGKKIKIKIVKKKDGTVRVEIEVDGKKIEIEVKVKSKEEAKKILEELLKKLGISA [r9_758_TrROS_Hall],2.41 ± 0.52
16,SAGGSAGGSAGGVKKGDKVTVLRVRLELKIKVEKTEDGSLKLTAELKLEISLVTVTAPDSAGGSAGGSAGGS [r10_297_TrROS_Hall],5.06 ± 0.21

# Assay: folding stability dG unfold from chymotrypsin proteolysis; higher = more stable
# Summary of the method: as §1
row,Sequence,folding stability dG unfold [kcal/mol]
1,SNIRIEVDPPNGVIRVTYTFPGDSLSDIKDEIVEYIQKLGFPIEVDIDKIEPMNNYWRVTAYIKIPPGAISA [r9_347_TrROS],4.56 ± 0.056
2,SAGGSAGGSSAEEVAASYPVTEVEYDPVTNTTTVTAEFPDSRIVLTYDPATGTVTTEVLPPLRSAGGSAGGS [r12_214_JUSTAS],0.749 ± 0.035
3,SAGGMSVRFRFTDEDDRIHVDEIIPGEGIMRVVVEGEDRPLVFTIDAPPDAAIQLIRDLFDGPFEVEASAGG [r13_141_TrMRF],0.849 ± 0.11
4,SAGVTITTNPESGTVTITIPFPDGSSATIELNYGGSLPTKPSITSFKVNPYDNGKPIIPADELVKKILSSAG [r5_842_TrMRF],1.57 ± 0.13
5,SAGGSAGGSAMLVALVRVPGTDKPVVARLPREIGREAAEELLREAFPDAEVLEIVEVPEEELSAGGSAGGSA [r18_242_TrMRF],1.712 ± 0.012
6,SAMTITVVADSAEEAERAARELAERLREALRELGIEGAEIEIKVTVLPAPPPERVLVRDPETDEWKEVPSAG [r14_475_TrROS_Hall],1.18 ± 0.031
7,SAGGMGTPFTTLTVTLEFPSSESLEEAKEKAEELAEELRRAHPEVVSIEIEVSKEGDTYKVKLTVTIASSAG [r5_446_JUSTAS],4.72 ± 0.11
8,SAGGSAGGMIKIKLKNGEVLYIDPKKPVLYFNKEKKIIPVKKDKIEKALKELEKKGFKIEKIDPSAGGSAGG [r6_337_TrMRF],-0.0347 ± 0.31
9,MMKVKIEVRNEENEEVLTIELEVPEGEELTEEEILDLIAERLGLSKEELRKRVRIEYDEETKRIRIEIRIES [r1_285_TrROS_Hall],2.27 ± 0.036
10,SAGGSAVPAGTTFELRYPEDEGSLTLTYDPSTNTVTITDGDKTTTYSSTSLEEVLKELGAELASRLSAGGSA [r15_500_JUSTAS],1.35 ± 0.094
11,SAGGSSPPTVEVSFDPASGTLTITTPDGTTTYSVKSVTVTRLPPELTLITITLEDGTVLTFELVVASAGGSA [r2_268_JUSTAS],4.65 ± 0.063
12,SAGGSAMITLEDIKALGPDNPIRTFPETGLVFVERPGELTLYKFDPKTNTVTKLKTFNSPEEKEKLSAGGSA [r15_6_JUSTAS],1.15 ± 0.083
13,SAGGSAGGSAEKKTITVVVKVDENGKEKTPEELAKELEKAGFKVTKVTWDEENNYVTVTIEASAGGSAGGSA [r18_466_TrROS_Hall],1.11 ± 0.049
14,SAGPVVEVKPLETQALPDGSVRVVAEVTIKDPNSEKTTVVTVEATARVAPDGRPVSIEEIVEKAIKELKSAG [r5_604_JUSTAS],1.26 ± 0.046
15,SAELTIEITVPPGKSVEEVLAEAKALAEELGLEIVEVRVERDENGEVRVTVVIKLPEELTEEQRKALLESAG [r14_110_TrROS_Hall],2.89 ± 0.13
16,SAGGSAGGSASLEEIKERAREEILKKHPDLPPDEPLTVTVKDPNSSNEYTITFNADGTVVESAGGSAGGSAG [r3_441_JUSTAS],0.814 ± 0.052

row,Sequence,folding stability dG unfold [kcal/mol]
1,SAGMEELAKELAEKLAEELPPGWKIVEIKVERLEDGTLRVRITIYRLDENGKLVEKREIEIEIPLEELSAGG [r19_28_TrROS_Hall],4.63 ± 0.081
2,SAGGMTLEFELEAEPLEEVEKRVRELLRELGFPESVEITIEPKKPDDGSVIYPVKVTLNDPALEARLSAGGS [r8_85_JUSTAS],1.22 ± 0.036
3,SAGGSAGGSAGTIRIKTKDGKTIEIELEGLSDEELENPEVLAEIKKALEDAGFEIVEVEPSAGGSAGGSAGG [r11_467_TrROS_Hall],2.04 ± 0.054
4,SAGGSAGGSAGIIVRLPDGGWLIIDITMTRKYPPPDGKPKKVEFEFTIIISPKSGKIRIVSAGGSAGGSAGG [r11_271_TrROS],3.21 ± 0.15
5,SAGGSAGGSKQILKKLGLPPGKEVQIMMTPNDMNELRDLPGIKSIKMEPRPDGYYQHSIRIDNSAGGSAGGS [r12_750_TrROS],-0.386 ± 0.33
6,SAGGMKIKITEVTVTRYYYDPKTGKLKKVEKVKVLVIEVELEPGQTAEEIAAALKKLFPDLKIVVVDSAGGS [r8_30_TrROS_Hall],5.33 ± 0.11
7,SAGGMTLVIKVTNKDGSTLTITFDAETNTITITFPDGTTRTITVPADTTIEELIAALPPDAKVEILPASAGG [r13_696_TrROS_Hall],4.75 ± 0.11
8,SAGGSAMPKKVVEGPVPPEDVEARIAELLEEDPNLTYVKFTYPELGSEVVIDFENGKVTKIERLLESAGGSA [r15_166_JUSTAS],0.211 ± 0.1
9,SAGKAELVEVTIEGDKLTALFKIPETGGLVLAEAEFDNGIVKVKAKFYSPSGKPLGEAEFTLPASELKLSAG [r5_308_TrMRF],2.73 ± 0.067
10,SAGGSAGGSMGLVVRREDGTLVLFRLGEDGLEEFTVPLEDWLTVPEEFFDAIPPEEVDEATPESAGGSAGGS [r12_793_TrMRF],1.9 ± 0.092
11,SAGGSAGGSAGGPEAVIEELKKAGYTPKVDPNSSVVTVTYKNPDGTILTKTINVPPSLLSAGGSAGGSAGGS [r10_1173_JUSTAS],1.59 ± 0.2
12,SGSVELSFDPSKPYKVKITATAPKDGTPYEVSGTTDPATGTITLPIRRPGSGEPLPPEELEFEIEVSPPESA [r9_928_JUSTAS],0.342 ± 0.12
13,SAGMPKPLVLPVVLPDDGATVEVVFDPVEKRIEIRVFKPGHRERAREFAEGIAALFEELGYEVEITDDSAGG [r19_354_TrMRF],1.27 ± 0.091
14,SMKPEEVKVIAEIEIEVNGKKIKIKIVKKKDGTVRVEIEVDGKKIEIEVKVKSKEEAKKILEELLKKLGISA [r9_758_TrROS_Hall],1.53 ± 0.14
15,SAGGSAGGSAGGVKKGDKVTVLRVRLELKIKVEKTEDGSLKLTAELKLEISLVTVTAPDSAGGSAGGSAGGS [r10_297_TrROS_Hall],5.2 ± 0.15
